The text below walks through data of US20230061838A1 (SORRENTO THERAPEUTICS, published 2023).

For this experiment, the target named is T1, CD20 antigen (UniProtKB P11836 - gene MS4A1), on Daudi cells (Homo sapiens, UniProt P11836 1-297).
T1 sequence: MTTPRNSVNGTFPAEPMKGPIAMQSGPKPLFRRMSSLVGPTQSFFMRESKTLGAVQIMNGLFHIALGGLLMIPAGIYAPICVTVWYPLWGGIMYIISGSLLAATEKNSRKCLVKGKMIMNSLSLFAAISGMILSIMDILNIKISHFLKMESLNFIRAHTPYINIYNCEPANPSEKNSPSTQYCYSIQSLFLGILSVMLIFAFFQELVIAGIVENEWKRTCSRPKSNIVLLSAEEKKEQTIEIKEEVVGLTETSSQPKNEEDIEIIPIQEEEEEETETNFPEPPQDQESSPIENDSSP
Briefly: cell-based or functional assay.

B1: anti-CD20 dimeric antigen receptor (CD20 DAR), expressed on primary human T cells (other)
heavy: QVQLQQPGAELVKPGASVKMSCKASGYTFTSYNMHWVKQTPGRGLEWIGAIYPGNGDTSYNQKFKGKATLTADKSSSTAYMQLSSLTSEDSAVYYCARSTYYGGDWYFNVWGAGTTVTVSAASTKGPSVFPLAPSSKSTSGGTAALGCLVKDYFPEPVTVSWNSGALTSGVHTFPAVLQSSGLYSLSSVVTVPSSSLGTQTYICNVNHKPSNTKVDKRVEPKSCDKTHTPRKIEVMYPPPYLDNEKSNGTIIHVKGKHLCPSPLFPGPSKPFWVLVVVGGVLACYSLLVTVAFIIFWVKRGRKKLLYIFKQPFMRPVQTTQEEDGCSCRFPEEEEGGCELRVKFSRSADKGERRRGKGHDGLYQGLSTATKDTYDALHMQALPPR
light: QIVLSQSPAILSASPGEKVTMTCRASSSVSYIHWFQQKPGSSPKPWIYATSNLASGVPVRFSGSGSGTSYSLTISRVEAEDAATYYCQQWTSNPPTFGGGTKLEIKRTVAAPSVFIFPPSDEQLKSGTASVVCLLNNFYPREAKVQWKVDNALQSGNSQESVTEQDSKDSTYSLSSTLTLSKADYEKHKVYACEVTHQGLSSPVTKSFNRGEC
As to B1, the “fold-change of expansion over four days of co-culture” value is above 10 fold.
